These results are taken from publication PMC8809517, “Cofactor-independent RNA editing by a synthetic S-type PPR protein”.

Where a chain is given by its changes, count along the chain named.

Common to all, as to test: high-throughput RNA pulldown from lysate on Ni-NTA beads; HRP: 50 mM Tris pH 8, 150 mM NaCl, 1 mM beta-mercaptoethanol, 50 ug/ml BSA, 3 ug/ml yeast RNA, 0.5% heparin; ITC and FP: Tris pH 8, 200 mM KCl, 5% glycerol; MST: 50 mM Tris pH 8, 200 mM NaCl, 1 mM DTT, BSA, heparin, 0.05% Tween 20
Holding throughout (conditions): tags: N-terminal His-eGFP

The target of data set [1] is T1, GFP-9S library array, motif 4 ND N98Q;D124K (synthetic construct, N98Q;D124K).
T1 chain: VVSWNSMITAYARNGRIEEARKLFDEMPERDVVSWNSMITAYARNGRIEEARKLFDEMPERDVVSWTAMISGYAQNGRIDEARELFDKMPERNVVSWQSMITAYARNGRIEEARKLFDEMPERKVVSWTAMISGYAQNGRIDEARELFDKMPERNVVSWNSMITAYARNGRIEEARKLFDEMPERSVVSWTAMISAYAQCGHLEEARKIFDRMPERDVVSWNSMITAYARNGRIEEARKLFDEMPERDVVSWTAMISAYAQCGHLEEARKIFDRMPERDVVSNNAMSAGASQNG

Data set [2] concerns the target T2, GFP-9S library array, motif 4 ND N98Y;D124K (synthetic construct, N98Y;D124K).
T2 chain: T1 chain with Q98Y

The target in data set [3] is T3, GFP-9S library array, motif 4 ND N98R;D124W (synthetic construct, N98R;D124W).
T3 chain: T1 chain with Q98R, K124W

The target in data set [4] is T4, GFP-9S library array, motif 4 ND N98A;D124P (synthetic construct, N98A;D124P).
T4 chain: T1 chain with Q98A, K124P

For data set [5], the target named is T5, GFP-9S library array, motif 4 ND N98V;D124Q (synthetic construct, N98V;D124Q).
T5 chain: T1 chain with Q98V, K124Q

B1: IR-rpoA-A (ssRNA)
RNA: AUUAAACGUGA
For B1, the Kd – broadly, the constant that tells how readily two partners part at equilibrium – in data set [1] (label: 5' IRDye 800CW) came to 257 nM; in data set [2] (label: 5' IRDye 800CW), 207 nM; in data set [3] (label: 5' IRDye 800CW) it was 249 nM; in data set [4] (label: 5' IRDye 800CW), 218 nM; in data set [5] (label: 5' IRDye 800CW), 166 nM.

B2: Cy5-rpoA (ssRNA)
RNA: AUUACACGUGA
As for B2, the Kd in data set [1] (label: 5' Cy5) amounted to 91.3 nM; in data set [2] (label: 5' Cy5), 93.3 nM; in data set [3] (label: 5' Cy5), 147 nM; in data set [4] (label: 5' Cy5) it was 138 nM; in data set [5] (label: 5' Cy5) it was 144 nM.

B3: IR-rpoA-U (ssRNA)
RNA: AUUAUACGUGA
Regarding B3, the Kd in data set [1] (label: 5' IRDye 800CW) amounted to 159 nM; in data set [2] (label: 5' IRDye 800CW), 227 nM; in data set [3] (label: 5' IRDye 800CW) it was 337 nM; in data set [4] (label: 5' IRDye 800CW), 320 nM; in data set [5] (label: 5' IRDye 800CW), 167 nM.

B4: Cy5-rpoA-G (ssRNA)
RNA: AUUAGACGUGA
In the case of B4, the Kd came to 109 nM in data set [1] (label: 5' Cy5); 97 nM in data set [2] (label: 5' Cy5); 88.7 nM in data set [3] (label: 5' Cy5); 115 nM in data set [4] (label: 5' Cy5); 126 nM in data set [5] (label: 5' Cy5).
